Measured values as given in the supplement of paper PMC11246515.
± gives the standard deviation of the averaged measurements.

Assay: total protein half-life in vivo (active degradation + dilution); higher = more stable protein
[1] = E. coli NCM3722 delta-clpP delta-lon delta-hslV, growth: N-lim chemostat, doubling time 6 h
[2] = E. coli NCM3722 delta-clpP, growth: N-lim chemostat, doubling time 6 h
[3] = E. coli NCM3722 delta-hslV, growth: N-lim chemostat, doubling time 6 h
[4] = E. coli NCM3722 delta-lon, growth: N-lim chemostat, doubling time 6 h
[5] = E. coli NCM3722 delta-smpB, growth: N-lim chemostat, doubling time 6 h
[6] = wild type E. coli NCM3722, growth: C-lim chemostat, doubling time 3 h
[7] = wild type E. coli NCM3722, growth: C-lim chemostat, doubling time 12 h
[8] = wild type E. coli NCM3722, growth: N-lim chemostat, doubling time 6 h
[9] = wild type E. coli NCM3722, growth: N-lim chemostat, doubling time 12 h
[10] = wild type E. coli NCM3722, growth: P-lim chemostat, doubling time 6 h
[11] = wild type E. coli NCM3722, growth: P-lim chemostat, doubling time 12 h
[12] = wild type E. coli NCM3722, growth: C-lim chemostat, doubling time 6 h

P0ADC1, sequence (chain, as listed by the source): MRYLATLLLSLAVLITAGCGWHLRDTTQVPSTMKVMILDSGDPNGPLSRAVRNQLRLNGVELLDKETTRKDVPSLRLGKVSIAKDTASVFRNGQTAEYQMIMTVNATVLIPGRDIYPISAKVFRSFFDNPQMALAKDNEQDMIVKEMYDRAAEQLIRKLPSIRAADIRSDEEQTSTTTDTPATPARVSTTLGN

Row | Substance | total protein half-life in vivo [1] [h] | total protein half-life in vivo [2] [h] | total protein half-life in vivo [3] [h] | total protein half-life in vivo [4] [h] | total protein half-life in vivo [5] [h] | total protein half-life in vivo [6] [h] | total protein half-life in vivo [7] [h] | total protein half-life in vivo [8] [h] | total protein half-life in vivo [9] [h] | total protein half-life in vivo [10] [h] | total protein half-life in vivo [11] [h] | total protein half-life in vivo [12] [h]
1 | MNDAVITLNGLEKRFPGMDKPAVAPLDCTIHAGYVTGLVGPDGAGKTTLMRMLAGLLKPDSGSATVIGFDPIKNDGALHAVLGYMPQKFGLYEDLTVMENLNLYADLRSVTGEARKQTFARLLEFTSLGPFTGRLAGKLSGGMKQKLGLACTLVGEPKVLLLDEPGVGVDPISRRELWQMVHELAGEGMLILWSTSYLDEAEQCRDVLLMNEGELLYQGEPKALTQTMAGRSFLMTSPHEGNRKLLQRALKLPQVSDGMIQGKSVRLILKKEATPDDIRHADGMPEININETTPRFEDAFIDLLGGAGTSESPLGAILHTVEGTPGETVIEAKELTKKFGDFAATDHVNFAVKRGEIFGLLGPNGAGKSTTFKMMCGLLVPTSGQALVLGMDLKESSGKARQHLGYMAQKFSLYGNLTVEQNLRFFSGVYGLRGRAQNEKISRMSEAFGLKSIASHATDELPLGFKQRLALACSLMHEPDILFLDEPTSGVDPLTRREFWLHINSMVEKGVTVMVTTHFMDEAEYCDRIGLVYRGKLIASGTPDDLKAQSANDEQPDPTMEQAFIQLIHDWDKEHSNE [P0A9U1] | 5.78 ± 0.23 | 6.03 ± 0.77 | 6.28 ± 0.41 | 6.03 ± 0.23 | 5.83 ± 0.5 | 3.32 ± 0.15 | 11.8 ± 2.2 | 6.05 ± 0.092 | 12.6 ± 1.7 | 6.15 ± 0.14 | 12.3 ± 0.47 | 
2 | P0ADC1 | 6.56 ± 1.7 |  | 6.27 ± 0.14 |  | 6.59 ± 0.86 | 2.97 ± 0.026 | 12.9 ± 0.43 | 6.33 ± 0.095 | 11.7 ± 1.9 |  | 12.7 ± 0.69 | 6.71 ± 0.69
3 | MLEDLKRQVLEANLALPKHNLVTLTWGNVSAVDRERGVFVIKPSGVDYSVMTADDMVVVSIETGEVVEGTKKPSSDTPTHRLLYQAFPSIGGIVHTHSRHATIWAQAGQSIPATGTTHADYFYGTIPCTRKMTDAEINGEYEWETGNVIVETFEKQGIDAAQMPGVLVHSHGPFAWGKNAEDAVHNAIVLEEVAYMGIFCRQLAPQLPDMQQTLLDKHYLRKHGAKAYYGQ |  |  |  |  |  |  | 9.82 |  |  |  |  | 2.27
4 | MARKTKQEAQETRQHILDVALRLFSQQGVSSTSLGEIAKAAGVTRGAIYWHFKDKSDLFSEIWELSESNIGELELEYQAKFPGDPLSVLREILIHVLESTVTEERRRLLMEIIFHKCEFVGEMAVVQQAQRNLCLESYDRIEQTLKHCIEAKMLPADLMTRRAAIIMRGYISGLMENWLFAPQSFDLKKEARDYVAILLEMYLLCPTLRNPATNE [P0ACS9] | 5.34 ± 0.52 |  | 6.2 | 5.24 | 5.82 ± 1.9 |  | 10.8 ± 0.63 | 5.74 | 11.6 | 4.88 | 7.48 | 5.61
5 | MAQGTLYIVSAPSGAGKSSLIQALLKTQPLYDTQVSVSHTTRQPRPGEVHGEHYFFVNHDEFKEMISRDAFLEHAEVFGNYYGTSREAIEQVLATGVDVFLDIDWQGAQQIRQKMPHARSIFILPPSKIELDRRLRGRGQDSEEVIAKRMAQAVAEMSHYAEYDYLIVNDDFDTALTDLKTIIRAERLRMSRQKQRHDALISKLLAD | 4.92 ± 0.11 | 4.94 ± 0.094 | 4.492 ± 0.0085 | 4.85 ± 0.71 | 4.493 ± 0.03 | 2.78 ± 0.075 | 8.87 ± 3.6 | 5.11 ± 0.12 | 8.324 ± 0.018 | 5.66 ± 0.11 | 11.8 ± 0.35 | 6.12 ± 1.5
6 | MHYMKWIYPRRLRNQMILMAILMVIVPTLTIGYIVETEGRSAVLSEKEKKLSAVVNLLNQALGDRYDLYIDLPREERIRALNAELAPITENITHAFPGIGAGYYNKMLDAIITYAPSALYQNNVGVTIAADHPGREVMRTNTPLVYSGRQVRGDILNSMLPIERNGEILGYIWANELTEDIRRQAWKMDVRIIIVLTAGLLISLLLIVLFSRRLSANIDIITDGLSTLAQNIPTRLPQLPGEMGQISQSVNNLAQALRETRTLNDLIIENAADGVIAIDRQGDVTTMNPAAEVITGYQRHELVGQPYSMLFDNTQFYSPVLDTLEHGTEHVALEISFPGRDRTIELSVTTSRIHNTHGEMIGALVIFSDLTARKETQRRMAQAERLATLGELMAGVAHEVRNPLTAIRGYVQILRQQTSDPIHQEYLSVVLKEIDSINKVIQQLLEFSRPRHSQWQQVSLNALVEETLVLVQTAGVQARVDFISELDNELSPINADRELLKQVLLNILINAVQAISARGKIRIQTWQYSDSQQAISIEDNGCGIDLSLQKKIFDPFFTTKASGTGLGLALSQRIINAHQGDIRVASLPGYGATFTLILPINPQGNQTV | 6.89 |  |  |  |  | 3.09 ± 0.28 |  |  |  |  |  | 6.53
7 | MPKFRVSLFSLALMLAVPFAPQAVAKTAAATTASQPEIASGSAMIVDLNTNKVIYSNHPDLVRPIASISKLMTAMVVLDARLPLDEKLKVDISQTPEMKGVYSRVRLNSEISRKDMLLLALMSSENRAAASLAHHYPGGYKAFIKAMNAKAKSLGMNNTRFVEPTGLSVHNVSTARDLTKLLIASKQYPLIGQLSTTREDMATFSNPTYTLPFRNTNHLVYRDNWNIQLTKTGFTNAAGHCLVMRTVINNKPVALVVMDAFGKYTHFADASRLRTWIETGKVMPVPAAALSYKKQKAAQMAAAGQTAQND [P0AFI5] | 3.37 ± 0.94 | 4.68 ± 1.7 | 2.57 ± 0.64 | 2.78 ± 0.39 | 1.81 ± 0.06 | 1.2 ± 0.078 | 5.03 ± 1.2 | 2.93 ± 0.48 | 3.05 ± 0.18 | 3.78 ± 3.8 | 5.78 ± 1.1 | 1.65 ± 0.34
8 | MLKRFFITGTDTSVGKTVVSRALLQALASQGKTVAGYKPVAKGSKETPEGLRNKDALVLQSVSTIELPYEAVNPIALSEEESSVAHSCPINYTLISNGLANLTEKVDHVVVEGTGGWRSLMNDLRPLSEWVVQEQLPVLMVVGIQEGCINHALLTAQAIANDGLPLIGWVANRINPGLAHYAEIIDVLGKKLPAPLIGELPYLPRAEQRELGQYIRLAMLRSVLAVDRVTV [P0A6E9] |  | 5.16 ± 1 | 2 ± 0.11 | 2.48 | 2.11 ± 0.046 | 2.11 ± 0.37 | 4.99 ± 0.23 |  | 3.5 ± 0.4 |  | 5.74 ± 0.84 | 
9 | MNKVVLLCRPGFEKECAAEITDKAGQREIFGFARVKENAGYVIYECYQPDDGDKLIRELPFSSLIFARQWFVVGELLQHLPPEDRITPIVGMLQGVVEKGGELRVEVADTNESKELLKFCRKFTVPLRAALRDAGVLANYETPKRPVVHVFFIAPGCCYTGYSYSNNNSPFYMGIPRLKFPADAPSRSTLKLEEAFHVFIPADEWDERLANGMWAVDLGACPGGWTYQLVKRNMWVYSVDNGPMAQSLMDTGQVTWLREDGFKFRPTRSNISWMVCDMVEKPAKVAALMAQWLVNGWCRETIFNLKLPMKKRYEEVSHNLAYIQAQLDEHGINAQIQARQLYHDREEVTVHVRRIWAAVGGRRDER [P0ADR6] | 5.236 ± 0.0068 | 4.78 ± 0.26 | 4.77 ± 0.28 | 5.75 ± 1 | 4.81 ± 0.15 | 3.45 ± 0.77 | 10.2 ± 0.49 | 4.78 ± 0.28 | 8.148 ± 0.00089 | 5.72 ± 0.16 | 11.6 ± 0.63 | 5.93 ± 0.44
10 | MAQHTVYFPDAFLTQMREAMPSTLSFDDFLAACQRPLRRSIRVNTLKISVADFLQLTAPYGWTLTPIPWCEEGFWIERDNEDALPLGSTAEHLSGLFYIQEASSMLPVAALFADGNAPQRVMDVAAAPGSKTTQISARMNNEGAILANEFSASRVKVLHANISRCGISNVALTHFDGRVFGAAVPEMFDAILLDAPCSGEGVVRKDPDALKNWSPESNQEIAATQRELIDSAFHALRPGGTLVYSTCTLNQEENEAVCLWLKETYPDAVEFLPLGDLFPGANKALTEEGFLHVFPQIYDCEGFFVARLRKTQAIPALPAPKYKVGNFPFSPVKDREAGQIRQAATGVGLNWDENLRLWQRDKELWLFPVGIEALIGKVRFSRLGIKLAETHNKGYRWQHEAVIALASPDNMNAFELTPQEAEEWYRGRDVYPQAAPVADDVLVTFQHQPIGLAKRIGSRLKNSYPRELVRDGKLFTGNA | 4.91 ± 0.059 | 4.53 ± 0.36 | 4.4 ± 0.12 | 5.21 ± 0.62 | 4.38 ± 0.21 | 2.99 ± 0.3 | 9.34 ± 2.6 | 4.63 ± 0.14 | 8.3 ± 0.63 | 4.78 ± 1.1 | 9.91 ± 0.92 | 5.79 ± 1.4
11 | MNTPAQLSLPLYLPDDETFASFWPGDNSSLLAALQNVLRQEHSGYIYLWAREGAGRSHLLHAACAELSQRGDAVGYVPLDKRTWFVPEVLDGMEHLSLVCIDNIECIAGDELWEMAIFDLYNRILESGKTRLLITGDRPPRQLNLGLPDLASRLDWGQIYKLQPLSDEDKLQALQLRARLRGFELPEDVGRFLLKRLDREMRTLFMTLDQLDRASITAQRKLTIPFVKEILKL | 5.11 ± 0.35 | 4.947 ± 0.022 | 5.42 ± 0.81 | 4.21 ± 0.21 | 4.29 ± 0.12 | 2.74 ± 0.07 | 9.48 ± 1.9 | 4.404 ± 0.034 | 7.28 ± 0.61 | 5.14 ± 0.064 | 10.6 ± 0.12 | 5.7 ± 1.3
12 | MQNSALKAWLDSSYLSGANQSWIEQLYEDFLTDPDSVDANWRSTFQQLPGTGVKPDQFHSQTREYFRRLAKDASRYSSTISDPDTNVKQVKVLQLINAYRFRGHQHANLDPLGLWQQDKVADLDPSFHDLTEADFQETFNVGSFASGKETMKLGELLEALKQTYCGPIGAEYMHITSTEEKRWIQQRIESGRATFNSEEKKRFLSELTAAEGLERYLGAKFPGAKRFSLEGGDALIPMLKEMIRHAGNSGTREVVLGMAHRGRLNVLVNVLGKKPQDLFDEFAGKHKEHLGTGDVKYHMGFSSDFQTDGGLVHLALAFNPSHLEIVSPVVIGSVRARLDRLDEPSSNKVLPITIHGDAAVTGQGVVQETLNMSKARGYEVGGTVRIVINNQVGFTTSNPLDARSTPYCTDIGKMVQAPIFHVNADDPEAVAFVTRLALDFRNTFKRDVFIDLVCYRRHGHNEADEPSATQPLMYQKIKKHPTPRKIYADKLEQEKVATLEDATEMVNLYRDALDAGDCVVAEWRPMNMHSFTWSPYLNHEWDEEYPNKVEMKRLQELAKRISTVPEAVEMQSRVAKIYGDRQAMAAGEKLFDWGGAENLAYATLVDEGIPVRLSGEDSGRGTFFHRHAVIHNQSNGSTYTPLQHIHNGQGAFRVWDSVLSEEAVLAFEYGYATAEPRTLTIWEAQFGDFANGAQVVIDQFISSGEQKWGRMCGLVMLLPHGYEGQGPEHSSARLERYLQLCAEQNMQVCVPSTPAQVYHMLRRQALRGMRRPLVVMSPKSLLRHPLAVSSLEELANGTFLPAIGEIDELDPKGVKRVVMCSGKVYYDLLEQRRKNNQHDVAIVRIEQLYPFPHKAMQEVLQQFAHVKDFVWCQEEPLNQGAWYCSQHHFREVIPFGASLRYAGRPASASPAVGYMSVHQKQQQDLVNDALNVE [P0AFG3] | 5.96 ± 0.15 | 6.43 ± 0.87 | 5.92 ± 0.14 | 5.36 ± 0.23 | 4.99 ± 0.18 | 2.51 ± 0.028 | 8.677 ± 0.03 | 5.377 ± 0.027 | 10.1 ± 0.89 | 4.72 ± 0.17 | 9.32 ± 0.68 | 5.13 ± 0.19
13 | MSAGRLNKKSLGIVMLLSVGLLLAGCSGSKSSDTGTYSGSVYTVKRGDTLYRISRTTGTSVKELARLNGISPPYTIEVGQKLKLGGAKSSSITRKSTAKSTTKTASVTPSSAVPKSSWPPVGQRCWLWPTTGKVIMPYSTADGGNKGIDISAPRGTPIYAAGAGKVVYVGNQLRGYGNLIMIKHSEDYITAYAHNDTMLVNNGQSVKAGQKIATMGSTDAASVRLHFQIRYRATAIDPLRYLPPQGSKPKC |  | 6.06 ± 0.3 | 6.34 ± 0.85 | 6.04 ± 0.44 | 5.693 ± 0.011 | 3.22 ± 0.21 | 9.64 ± 0.25 | 5.64 ± 0.52 | 10.8 ± 0.38 | 6.32 ± 0.37 | 13.3 ± 0.95 | 5.4794 ± 0.0017
